Residue numbers refer to the chain shown, from its start. In names and notes the source's numbering stands. Where two headings read alike, the source gives them in different places.

This is an account of results in patent publication US9090882B2, “Compositions and methods for enhanced amino acid levels in plants conferred by lysine and/or threonine feedback insensitive aspartate kinase proteins” (priority 2008, dated 2015).

Data set [1] concerns E. coli lysC aspartate kinase. To be noted: known from the literature; cited from earlier work.
Data set [2] relates to plants. The note with it: expression in plants; Karchi et al. 1993, Galili et al. EP 0485970; cited from earlier work.
Data set [3] relates to X. bovienii aspartate kinase. The experiment in a line: Aspartate kinase enzyme assays and kinetic studies (colorimetric hydroxamate / coupled assay) with purified recombinant His-tagged AK. It counts as biochemical, Xenorhabdus bovienii. To be noted: for Vmax Asp / Km: purified enzyme. The method, then: The chimeric plasmids containing AK or the desired mutants were transformed into E. coli BL21 (DE3) cells and transformants were selected on LB (Luria-Bertani) medium containing kanamycin (50 μg/mL). For induction of gene expression, transformants selected from single colonies were grown in 100 mL liquid LB supplemented with ampicillin or kanamycin to approximately 0.6 A600, and 0.4 mM. Isopropyl-β-thiogalactopyranoside (IPTG) (Gold Biotechnologies, St. Louis, Mo.) was added, followed by 15 hours incubation at 21° C. and 220 rpm shaking. Cells were harvested by 30 min centrifugation at 7,000×g and washed once with 20 mM Tris-HCl, 150 mM NaCl, pH 7.4. Washed cell pellets were re-suspended in 50 mM K-phosphate buffer (pH7.4, Buffer A) containing 2 mM MgCl2, 50 mM NaCl, 100 units of benzonase (Novagen, San Diego, Calif.) and protease inhibitor cocktail tablets without EDTA (1 tablet/10 mL) (Boehringer Mannheim, Germany). Cells were broken by three passages through a chilled French press cell (SLM-Aminco Spectronic Instruments), operating at 20,000 psi. The lysate was centrifuged by an ultra-centrifuge for 1 hour at 100,000×g, at 4° C. The resulting supernatant was applied to nickel+-nitrilotriacetic acid (Ni+NTA) agarose column (His-Bind resin, Qiagen) and chromatographed according to the supplier's instructions. The column was washed with 3 bed volumes of Buffer A containing 20 mM imidiazole followed by elution with 300 mM imidazole. Enzymatically active fractions of the N-terminal His-tagged […] were pooled, dialyzed against Buffer A without benzonase, and stored in 15% glycerol solution at −80° C. for use in kinetic studies. The enzyme preparation was over 95% pure as judged by Coomassie Blue-stained SDS-PAGE.
Colorimetric Hydroxamate Method. The assay mixture (final volume, 0.8 mL) contained 100 Tris-HCl, pH8.0, 40 mM hydroxylamine-KOH, pH8.0, 25 mM ATP-KOH, pH8.0, 20 mM MgCl2, L-aspartic acid, and 150 mM KCl. The reaction was initiated by addition of AK enzyme, and carried out at 37° C. for 15-30 min. The reaction was terminated by addition of 400 μL acidified ferric chloride (0.37 M FeCl3, 20% TCA, and 0.72 M HCl) and followed by the centrifugation at top speed of microcentrifuge. The formed aspartyl-hydroxamate was determined by colorimetrically at 505 nm. The biosynthetic activity was calculated based on the standard curves of L-aspartyl-hydroxamate or ε505nm.
The assay couples the conversion of ATP to ADP to the oxidation of NADH using pyruvate kinase and lactate dehydrogenase at 30° C. NADH oxidation was monitored kinetically at 340 nm. (See Wampler D E, Westhead E W. (1968), BIOCHEMISTRY 7: 1661-1670.)
Kinetic parameters were determined by measuring product formation in 100 μL reaction mixtures containing various substrate concentrations ranging from 0 to 25 mM. Controls were included for every assay. Values for Km, Vmax, and Kcat were calculated from the rate of the product formation using Michaelis-Menten equations in conjunction with the curve fitting options in the Grafit 5.0 software (Erithacus software Ltd., Horley, UK) (Table 2).

[4] abbreviates: substrate ATP, read-out: Km ATP.
The mark [5] stands for this setting: substrate Asp, read-out: Km Asp.

B1: E. coli lysC gene product: recombinant E. coli lysC aspartate kinase, control sensitive to feedback inhibition by Lys (protein, UniProt P08660 2-449, looked up)
Lysine-sensitive …: SEIVVSKFGGTSVADFDAMNRSADIVLSDANVRLVVLSASAGITNLLVALAEGLEPGERFEKLDAIRNIQFAILERLRYPNVIREEIERLLENITVLAEAAALATSPALTDELVSHGELMSTLLFVEILRERDVQAQWFDVRKVMRTNDRFGRAEPDIAALAELAALQLLPRLNEGLVITQGFIGSENKGRTTTLGRGGSDYTAALLAEALHASRVDIWTDVPGIYTTDPRVVSAAKRIDEIAFAEAAEMATFGAKVLHPATLLPAVRSDIPVFVGSSKDPRAGGTLVCNKTENPPLFRALALRRNQTLLTLHSLNMLHSRGFLAEVFGILARHNISVDLITTSEVSVALTLDTTGSTSTGDTLLTQSLLMELSALCRVEVEEGLALVALIGNDLSKACGVGKEVFGVLEPFNIRMICYGASSHNLCFLVPGEDAEQVVQKLHSNLFE
With B1, the “feedback inhibition by Lys” value in data set [1] is “sensitive to feedback inhibition by Lys”.

B2: E. coli T352I lysC gene product: E. coli feedback-insensitive (T352I) lysC aspartate kinase, control (protein, listed as Escherichia coli)
chain: MSEIVVSKFGGTSVADFDAMNRSADIVLSDANVRLVVLSASAGITNLLVALAEGLEPGERFEKLDAIRNIQFAILERLRYPNVIREEIERLLENITVLAEAAALATSPALTDELVSHGELMSTLLFVEILRERDVQAQWFDVRKVMRTNDRFGRAEPDVAALAELAALQLLPRLNDGLVITQGFIGSENKGRTTTLGRGGSDYTAALLAEALHASRVDIWTDVPGIYTTDPRVVSAAKRIDEIAFAEAAEMATFGAKVLHPATLLPAVRSDIPVFVGSSKDPRAGGTLVCNKTENPPLFRALALRRNQTLLTLHSLNMLHSRGFLAEVFGILARHNISVDLITTSEVSVALTLDTTGSTSTGDTLLTQSLLMELSALCRVEVEEGLALVALIGNDLSKACGVGKEVFGVLEPFNIRMICYGASSHNLCFLVPGEDAEQVVQKLHFNLFE
For the molecule B2, the “feedback inhibition by Lys” value in data set [1] is on record as “lysine-insensitive”. Also, in data set [2], the “increase in threonine content of the seed” value is recorded as 6-7%.

B3: X. bovienii AK T359I: Xenorhabdus bovienii aspartate kinase variant, Thr 359 replaced with Ile (protein, listed as Xenorhabdus bovienii)
chain: MCAVSSTYPQYVVAKFGGTSVADFDAMNHCADIILANADVRVVVLSASAGVTNLLVALATGCDNDKRKKCLKQIRDIQYAIIDRLNDVNVICEEIDRLLENIEMLSEAASLATSEALTDELVSHGEVMSTLLFVELLRQRNVNAEWFDIRRVMRTNDHFGRAEPDSLQLHISAVELLQPRLNNTVVITQGFIGREEKGRTTTLGRGGSDYTAALLGEALNLQRVDIWTDVPGIYTTDPRVAPTAKRIDKIAFDEAAEMATFGAKILHPATLLPAIRCGIPVFVGSSKDPQAGGTLVCDKTENPPLFRALALRRKQTLLTLHSLKMLHARGFLAEVFTLLLRHNISVDLITTSEVSVALILDTTGSTSTNGSLLTNALLTELSTLCRVEVEEDLALVAIIGNELSQAKGLGKEIFGTLESFNIRMISYGASSHNVCLLVPGQDAESVIQKLHQNLFKV
One may read the Km as the concentration of substrate that gives half-maximal velocity. With B3, the “Vmax Asp” value in data set [3] is 0.26 μmoles · min^−1 · mg^−. In addition, the results for the Km in data set [3] (setting [4]) and in data set [3] (setting [5]) were 1820 µM and 2310 µM, respectively.

B4: X. bovienii AK E257K: Xenorhabdus bovienii aspartate kinase variant, Glu 257 replaced with Lys (protein, listed as Xenorhabdus bovienii)
chain: B3 chain with E257K, I359T
Regarding B4, the “Vmax Asp” value in data set [3] is 0.20 μmoles · min^−1 · mg^−. In addition, the Km in data set [3] (setting [4]) worked out at 1890 µM; in data set [3] (setting [5]), 3060 µM.

B5: X. bovienii AK E257K/T359I: Xenorhabdus bovienii aspartate kinase double variant E257K/T359I (protein, listed as Xenorhabdus bovienii)
chain: B3 chain with E257K
In the case of B5, the “Vmax Asp” value in data set [3] is recorded as 0.24 μmoles · min^−1 · mg^−. Also, the Km in data set [3] (setting [4]) was 1620 µM; in data set [3] (setting [5]), 3100 µM.

B6: X. bovienii AK Wild Type: purified recombinant His-tagged wild-type Xenorhabdus bovienii aspartate kinase (encoded by SEQ ID NO: 6) (protein, listed as Xenorhabdus bovienii)
chain: B3 chain with I359T
modifications: His tag
The IC50 is the concentration that inhibits the measured activity by half. As to B6, the IC50 in data set [3] (inhibition of the purified enzyme by lysine) was 140 µM. Also, the “Vmax Asp” value in data set [3] worked out at 0.29 μmoles · min^−1 · mg^−. Also, the Km is 2560 µM in data set [3] (setting [4]) and 2730 µM in data set [3] (setting [5]).
